Experiment [1] concerns the target T1, IL-2Rα-Fc (Acro Biosystems, catalog #ILA-H5251) (UniProt P01589 22-217, limits assumed).
T1 construct: Bought reagent; Captured on an anti-Fc chip as SPR ligand; also called CD25; not shown: Fc part of the bought fusion
T1 sequence (looked up): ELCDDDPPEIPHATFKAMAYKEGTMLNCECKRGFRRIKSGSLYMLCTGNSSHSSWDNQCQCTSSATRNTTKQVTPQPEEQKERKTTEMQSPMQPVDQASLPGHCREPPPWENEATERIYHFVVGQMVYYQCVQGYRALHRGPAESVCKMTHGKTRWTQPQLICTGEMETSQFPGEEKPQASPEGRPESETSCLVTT
Put plainly: SPR (Biacore T200), kinetic; receptor-Fc captured on anti-Fc CM5 chip, IL-2 variant as analyte; conjugated to DBCO 2 x 10 kDa PEG (PEG2). As for the experimental part:
(§1) Anti-Fc polyclonal antibodies were immobilized onto a CM5 chip (GE Life Sciences) using amine coupling chemistry (from Amine Coupling Kit, GE Life Sciences). The immobilization steps were carried out at a flow rate of 25 μL/minute in 1×HBS-EP+ buffer (GE Life Sciences; 10× Stock diluted before use). The sensor surfaces were activated for 7 minutes with a mixture of NHS (0.05 M) and EDC (0.2 M). The anti-Fc antibodies were injected over all four flow cells at a concentration of 25 μg/mL in 10 mM sodium acetate, pH 4.5, for seven minutes. Ethanolamine (1 M, pH 8.5) was injected for seven minutes to block any remaining activated groups.
(§2) Kinetic binding experiments were performed at 25° C. using 1×HBS-EP+ with 0.05% BSA buffer. IL-2Rα-Fc or IL-2Rβ-Fc (Acro Biosystems, catalog #ILA-H5251, ILB-H5253) was injected over the anti-Fc surface at concentrations of 3-10 μg/mL for 12 seconds at a flow rate of 10 μL/minute on flow cells 2, 3 and 4, followed by a buffer wash for 30 seconds at the same flow rate. Kinetic characterization of conjugated or unconjugated aldesleukin or variants was carried out in a range of concentrations from 1 nM-10 μM and one injection of no antigen. After capturing ligand (IL-2Rα-Fc or IL-2Rβ-Fc) on the anti-Fc surface, the analyte (IL-2 variant) was bound for 60 seconds, followed by a 180 second dissociation phase at a flow rate of 50 μL/min. […]

In experiment [2] the target is T1, IL-2Rα-Fc (Acro Biosystems, catalog …). Put plainly: SPR, receptor-Fc captured on anti-Fc chip. Background: In SPR one partner is held on a chip, and binding of the other changes the refractive index at the surface.
Experiment [3] has as its target T2, IL-2Rβ-Fc (Acro Biosystems, catalog #ILB-H5253) (UniProt P14784 27-239, limits assumed).
T2 construct: Bought reagent; Captured on an anti-Fc chip as SPR ligand; also called CD122; not shown: Fc part of the bought fusion
T2 sequence (looked up): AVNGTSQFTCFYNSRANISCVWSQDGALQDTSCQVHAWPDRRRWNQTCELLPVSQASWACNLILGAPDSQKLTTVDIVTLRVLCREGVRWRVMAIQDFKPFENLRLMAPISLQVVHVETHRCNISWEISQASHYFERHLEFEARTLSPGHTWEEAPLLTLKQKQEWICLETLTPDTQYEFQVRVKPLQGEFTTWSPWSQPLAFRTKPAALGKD
Put plainly: SPR (Biacore T200), kinetic; receptor-Fc captured on anti-Fc CM5 chip, IL-2 variant as analyte. The method, then: as §1
Kinetic binding experiments were performed at 25° C. using 1×HBS-EP+ with 0.05% BSA buffer. IL-2Rα-Fc or IL-2Rβ-Fc (Acro Biosystems, catalog #ILA-H5251, ILB-H5253) was injected over the anti-Fc surface at concentrations of 3-10 μg/mL for 12 seconds at a flow rate of 10 μL/minute on flow cells 2, 3 and 4, followed by a buffer wash for 30 seconds at the same flow rate. Kinetic characterization of conjugated or unconjugated aldesleukin or variants was carried out in a range of concentrations from 1 nM-10 μM and one injection of no antigen. After capturing ligand (IL-2Rα-Fc or IL-2Rβ-Fc) on the anti-Fc surface, the analyte (IL-2 variant) was bound for 60 seconds, followed by a 180 second dissociation phase at a flow rate of 50 μL/min. Between each ligand capture and analyte binding cycle, regeneration was carried out using two injections of 10 mM Glycine pH 1.5 for 30 seconds at 30 μL/minute, followed by a 30 second buffer wash step.

For experiment [4], the target named is T1, IL-2Rα-Fc (Acro Biosystems, catalog …). Kind of experiment: SPR (Biacore T200), kinetic; receptor-Fc captured on anti-Fc CM5 chip, IL-2 variant as analyte; unconjugated (pAMF incorporated, no PEG). As for the experimental part:
as §1, §2

The source of these data is patent US20260256927A1 (Merck Sharp & Dohme, published 2026).

Positions count from the first letter of the chain named. In names and notes the source's numbering stands.

B1: Ald-6HIS_K34pAMF (SP9833) conjugated to DBCO 2 x 10 kDa PEG (PEG2) (ligand)
chain: MPTSSSTKKTQLQLEHLLLDLQMILNGINNYKNPFLTRMLTFKFYMPKKATELKHLQCLEEELKPLEEVLNLAQSKNFHLRPRDLISNINVIVLELKGSETTFMCEYADETATIVEFLNRWITFSQSIISTLTGGSHHHHHH
modifications: X35 = pAMF (K34) conjugated to branched 20 kDa PEG (DBCO 2 x 10 kDa PEG, PEG2)
notes: also called SP9833 PEG2 conjugated
A word on the Kd: it is the constant that tells how readily two partners part at equilibrium. On to B1, for which the Kd in experiment [1] amounted to 800 nM.

B2: SP10728 (Aldesleukin-6His_S4/Y30/K34/R80 pAMF F41K conjugated to SC579) (ligand)
chain: B1 chain with S5F, Y31F, F42K, R81F
modifications: X5, X31, X35, X81 = pAMF (S4, Y30, K34, R80), each conjugated to SC579 (releasable 20 kDa mPEG Fmoc-DBCO linker)
notes: also called SP10728 PEG conjugate
B2: the binding result in experiment [2] is “no binding”.

B3: Ald-6HIS_K34pAMF (SP9833), unconjugated (ligand)
chain: B1 chain
modifications: X35 = pAMF (K34 in SEQ ID NO: 2/3 numbering)
notes: also called Aldesleukin-6His K34TAG p-azidomethyl-L-phenylalanine
Take B3: the Kd in experiment [3] came out at 300 nM; in experiment [4], 7 nM.
